One experiment relates to TGF-βRII RNA expression. The experiment can be described thus: Quantitative real-time PCR of TGF-βRII transcripts in CD4+CD25- T cells. It is filed as cell-based, human. Conditions: coated anti-CD3 and DL-4 or Jagged-1 for 3 hours, in the presence of GSI. The procedure:
FIG. 3: TGF-βRII expression on effector T cells after NOTCH ligands exposure • A) CD4^+CD25^−T cells were purified using Miltenyi microbeads from PBMC and cultured for 3 hours in coated wells with anti-CD3 (200 ng/ml) and NOTCH ligands (5 μg/ml) or IgG control (5 μg/ml). Quantitative real-time PCR was performed to measure the transcripts levels of TGF-βRII. Data shown are mean±SEM and are representative of 4 independent experiments. * indicates P<0.05. • B) Protein levels of TGF-βRII in CD4^+CD25^−T cells stimulated to DL-1, DL-4 and Jagged-1 using FACS analysis. Mean of fluorescence are represented±SEM. * indicates P<0.05.
CD4^+CD25^− T cells were cultured for 3 hours in coated wells with anti-CD3 (200 ng/ml) and NOTCH ligands (5 μg/ml) or IgG control (5 μg/ml). Total RNA was extracted with Trizol (Invitrogen) and purified by chloroform extraction. RNA was then reverse transcribed using 1 mM oligodT and the Superscript™ HH Rnase H-reverse transcriptase (Invitrogen Life technologies) according to the manufacturer's instructions. Quantitative PCR was performed in a LightCycler System (Roche diagnostics) using a SYBR Green PCR kit from Roche Diagnostics. The cDNA input for each population was normalized to obtain equivalent signals with Splicing Factor 3A1 (SF3A1) used as housekeeping gene. Primers used were: […]
Active TGF-β mediates its biological functions by binding to TGF-β type I and type II receptors (TGF-βRII). Therefore, the effects of NOTCH activation on TGF-βRII expression of effector T cells were first investigated. […] This effect is abrogated in the presence of GSI (P<0.05 for comparison with culture performed without GSI vehicle).
Background: Real-time PCR tracks product formation cycle by cycle.

The subject of experiment [1] is CD4+CD25- T cell proliferation. The experiment can be described thus: Suppression assay: CD4+CD25- T cells co-cultured with Treg plus anti-CD3, with or without g-secretase inhibitor, [3H]thymidine incorporation. It counts as cell-based, human. Conditions: for Treg-mediated suppression (percentage of inhibition of CD4+CD25- T cell proliferation): GSI added at the beginning of the coculture (10 μM), anti-CD3 1 μg/ml, 5 days, mean+/-SD. Here is the method:
FIG. 1: NOTCH signalling is involved in Treg mediated inhibition of anti-CD3 stimulated CD4^+CD25^− T cell proliferation • A) Various ratio of CD4^+CD25^− T cells and CD4^+CD25^high T cells were cultured for 5 days in coated wells with anti-CD3 (1 μg/ml) in the presence or not of inhibitor of g-secretase (GSI 10 μM). Percentages of inhibition were calculated from the raw data using the equations: 1—(mean cpm of co-culture wells divided by mean cpm of CD4^+CD25^− cells cultured alone)×100. The data represent the mean±SEM and are representative of 5 independent experiments. * indicates P<0.05. • B) CD4^+CD25^−T cells were cultured for 18 hours in coated wells with anti-CD3 and NOTCH ligands (5 μg/ml) or IgG control (5 μg/ml). Then, T cells were washed and incubated for 5 days in coated wells with anti-CD3 in the absence or presence of Treg at ratio 1:8. The data represent the mean±SEM of inhibition of T cell proliferation of 5 independent experiments.
Peripheral blood mononuclear cells were separated by Ficoll-Hypaque centrifugation (Amersham Biosciences) from buffy coats obtained from healthy blood donors (EFS, Créteil). CD4^+ CD25^− T cells and CD4^+CD25^high T cells were isolated using a CD4^+ T cell enrichment column and a human CD4^+CD25^+ Treg isolation kit purchased from Miltenyi Biotec. CD4^+CD25^− cells and CD4^+CD25^+ cells were enriched to greater than 95% purity. […]
A total of 2.5×10^4 CD4^+CD25^− T cells were cultured with various ratios of CD4^+CD25^high cells and 1 μg/ml of anti-CD3 for 5 days, in the presence or absence of 10 μm of the gamma-secretase inhibitor Compound E. A total of […] [^3H] thymidine (Amersham Pharmacia) was added to the wells during the last 16 hours of culture. The cells were then harvested and assessed for [^3H] thymidine incorporation using a liquid scintillation counter. Results were expressed as mean cpm of quadriplicate culture wells.
Percentage of inhibition was calculated as follows: 1−(mean cpm of co-culture wells divided by mean cpm of CD4^+CD25^− cells cultured alone)×100. […]
A general note: Uptake of a labelled nucleoside into DNA is a usual measure of proliferation.

For experiment [2], the target named is NOTCH on human CD4+CD25- effector T cells. The experiment can be described thus: cell-based or functional assay.

For the compound `C[C@H](NC(=O)Cc1cc(F)cc(F)c1)C(=O)N[C@H]1N=C(c2ccccc2)c2ccccc2N(C)C1=O` [GSI, Compound E], the “Effect of GSI on the DL-4 / Jagged-1 induced increase in TGF-βRII RNA expression” value in the experiment with TGF-βRII RNA expression is “abrogated”. The “Treg-mediated suppression (percentage of inhibition of CD4+CD25- T cell proliferation)” value in experiment [1] (Treg/Effector ratio 1:4) was determined as 46.9%; in experiment [1] (Treg/Effector ratio 1:8) it was 49.3%. The “Effect on proliferation of CD4+CD25- T cells cultured alone” value in experiment [1] (no Treg, data not shown) is “did not affect the proliferation”.
For the compound “DL-1-Fc (from UniProt O00548 18-545) (Fc fusion)”, in experiment [2], the Percentages of inhibition of cell proliferation (CD4+CD25- T cells pre-exposed to ligand, co-cultured with Treg at ratio 1:8) stood at 64.8%; the expression of TGF-βRII on CD4+CD25- T cells after 48 hours on ligand (flow cytometry, MFI; IgG control MFI 53) stood at 85 MFI; the percentage of inhibition of CD4+CD25- T cell proliferation with anti-CD3, ligand and TGF-β (0.1 ng/ml) is 42.9%.
Turning to “DL-4-Fc (from UniProt Q9NR61 27-529) (Fc fusion)”, in experiment [2], the Percentages of inhibition of cell proliferation (CD4+CD25- T cells pre-exposed to ligand, co-cultured with Treg at ratio 1:8) turned out to be 64.2%; the TGF-βRII RNA expression, fold increase against IgG control (real-time PCR, 3 hours) worked out at 4.4 fold; the expression of TGF-βRII on CD4+CD25- T cells after 48 hours on ligand (flow cytometry, MFI; IgG control MFI 53) came out at 166 MFI; the mean inhibition of T cell proliferation (co-culture with Treg at ratio 1:16 on immobilized ligand) is 47%. In addition, the percentage of inhibition of CD4+CD25- T cell proliferation with anti-CD3, ligand and TGF-β (0.1 ng/ml) in experiment [2] worked out at 74.1%.
For “Jagged-1-Fc (from UniProt P78504 34-1067) (Fc fusion)” the same measures were 65%, 2.8 fold, 130 MFI, 65% and 87.8%.

The values above are taken from US20150140043A1, “IMMUNOMODULATORY METHODS USING NOTCH AGONISTS” (INSTITUT NATIONAL DE LA SANTE DE LA RECHERCHE MEDICAL …, priority 2012, published 2015).
